Test results reported in publication PMC13233820, “Recruitment of Mre11 to recombination sites during meiosis” (Nature Communications, 2026).

What was measured:
[1] = test system: Mer2; assay: Co-immunoprecipitation of Mer2 and Mre11 from meiotic extracts; format: binding, Saccharomyces cerevisiae; details: Supplementary Fig. 6i
Protocol: Meiotic cultures were collected at 4 h after transferring to SPM, washed once in ice-cold 1 × PBS containing 1 mM PMSF, following which, they were transferred to 1.5 ml screw-cap tubes and were either snap frozen in liquid nitrogen or processed directly. […] 900 µL of 0.5 mm zirconium beads were added to the cell pellet, and cells were lyzed in a Precellys bead beater at 7200 rpm for 12 × 15 seconds while chilling the tubes for 2 min on ice between each cycle. Cell extract was collected by poking a hole at the bottom of the tubes while placing the tubes on top of another 1.5 ml tubes and centrifuging at 800 × g for 1 min at 4 °C. Beads were washed with 500 µl of IP buffer and collected in the same tube. Cell lysate was spun again at 800 g for 5 min at 4 °C and supernatant was transferred to 15 mL tubes. Sonication was performed three times in ice in Bioruptor Plus at intensity (M) in a 30 s ON / 30 s OFF cycle for 15 min each time. The lysate was centrifuged at 15.000 g at 4 °C for 10 min and the supernatant (~ 800 µl) was transferred to new 1.5 ml tubes. 80 µL (10%) was collected as Input fraction and snap frozen. 1 µL of mouse monoclonal anti-myc primary antibody was added to each tube, and tubes were rotated overnight at 5 rpm at 4 °C. The following day, Dynabeads Protein G (30 µl per tube) were added to Protein LoBind tubes and washed two times with 1 mL IP buffer containing 1 mM PMSF using DynaMag2. The lysates with the antibody were transferred to the tubes containing Dynabeads and were rotated for 3-4 hours at 5 rpm at 4 °C, following which, the Dynabeads were collected and washed four times with 1 ml IP buffer containing 1 mM PMSF. Finally, 60 µL IP buffer and 20 µL 4 × Lammelli buffer was added to the tubes and incubated for 5 mins at 95 °C while shaking at 1000 rpm. TCA extraction was performed on the input fractions by adding 8 µL 100 % TCA (final 10 % TCA) and incubating on ice for 30 mins. Precipitated proteins were solubilized in 40 µL 1 × Laemmli sample buffer incubated for 5 mins at 95 °C. Immunoblotting was performed using the protocol described below.

[2] = test system: pUC19 plasmid substrate; assay: Gel shift assay, plasmid DNA binding; details: 1 nM pUC19, 25 mM HEPES-HCl pH 7.5, 100 mM NaCl, 5 mM EDTA, 30 °C 30 min
Protocol: Proteins were diluted to their appropriate working concentrations in their respective storage buffers. […] Reactions were assembled at 30 °C for 30 mins and resolved in a 1% agarose (SeaKem LE Agarose, Lonza) at 60 V for 120 mins at 4 °C. Gels were stained with SYBR Gold Nucleic Acid Gel Stain (S11497, Invitrogen) for 40 mins and visualized with Amersham Typhoon biomolecular imager (Cytiva).

[3] = test system: supercoiled pUC19 plasmid DNA; assay: In vitro condensation assay of Mre11 (fluorescence microscopy); format: biochemical; details: eGFP-tagged truncations with plasmid DNA
Protocol: Fig. 1 Mre11 and the MRX complex assemble DNA-dependent condensates in vitro. a, c Effect of the presence of plasmid DNA on condensation of (a) Alexa488-labeled Mre11 (n = 11 and 9 fields of view for reactions without and with DNA, respectively) and (c) eGFP-tagged MRX (n = 11 (- DNA) and 9 ( + DNA)). Experiments were performed without PEG. b, d Effect of DNase I, in the absence of PEG, on (b) Mre11 (n = 9 (no treatment) and 11 (DNase I)) and (d) MRX (n = 9 (no treatment) and 11 (DNase I)) condensates. Condensates were pre-assembled for 20 min with 5.7 nM pUC19 prior to challenge. Quantification represents total foci intensity (green) in a field of view and total number of foci per 1000 µm^2 (magenta). Foci intensity is normalized to the mean intensity of samples with DNA for (a, c) and untreated samples for (b, d). […] Quantification represents total foci intensity (green) in a field of view (normalized to the mean of + PEG images) and total number of foci per 1000 µm^2 (magenta). […]
Fig. 2 The C-terminal IDR of Mre11 is required for condensation. a AlphaFold2 predicted model of Mre11 (AF-P32829-F1-v4). […] Quantification represents total fluorescence intensity (green) in a field of view and total number of foci per 1000 µm^2 (magenta). […]

[4] = test system: spores of yeast strains; assay: Spore viability assay; format: cell-based, Saccharomyces cerevisiae; details: Fig. 7c
Protocol: For the spore viability assay, a small patch of the diploid strain was incubated in sporulation media (2% potassium acetate) at 30 °C, 250 rpm for two days. After two days, 1 mL of sporulating culture was centrifuged, and all but 200 µL of supernatant was removed. To digest yeast cells, 2 µL of concentrated sporulation culture was mixed with 100 µL 1 M sorbitol and 1 µL 10 mg/ml zymolyase and incubated at 30 °C for 21 mins. 20 µL of digested cells were dropped on a YPD plate, left to dry for about 10 mins, and were micromanipulated using a tetrad dissector (MSM400, Singer Instruments). At least 20 tetrads were dissected for each assay, and spore viability was assessed by calculating the number of viable spores after 2 days of incubation at 30 °C.

B1: Mer2-EQEK (protein)
chain: MVARGRTDEISTDVSEANSEHSLMITETSSPFRSIFSHSGKVANAGALEASDKAILAWAGALELESMELRENSDKLIKVLNENSKTLCKSLNKFNQLLEQDAATNGNVKTLIKDLASQIENQLDKVSTAMLSKGDEKKTKSDSSYRQVLVEEISRYNSKITRHVTNKQHETEKSMRCTQEMLFNVGSQLEDVHKVLLSLSKDMHSLQTRQTALEMAFREKADHAYDRPDVSLNGTTLLHDMDEAHDKQRKKSVPPPRMMVTRSMKRRRSSSPTLSTSQNHNSEDNDDASHRLKRAARTIIPWEELRPDTLESEL
modifications: left off: V5, internal (after residue 248), kept
[1]; Experiment 1
  Normalized to WT Mer2 IP: 56.73
[1]; Experiment 2
  Normalized to WT Mer2 IP: 70.72

B2: Mre11-IDR: Mre11 disordered region alone (524-677) (protein, UniProt P32829 524-677, looked up, fragment)
chain: NSVRPTPPKENDETNFAFNGNGLDSFRSSNREVRTGSPDITQSHVDNESRITHISQAESSKPTSKPKRVRTATKKKIPAFSDSTVISDAENELGDNNDAQDDVDIDENDIIMVSTDEEDASYGLLNGRKTKTKTRPAASTKTASRRGKGRASRT
[2]
  DNA-binding activity (in words): reduced DNA binding as compared to the wild type or Mre11^ΔIDR
[3]
  Condensation of Mre11 truncations (in words): failed to form condensates

B3: Mre11-ΔC15: Mre11 lacking the C-terminal 15-residue α-helix (protein)
chain: MDYPDPDTIRILITTDNHVGYNENDPITGDDSWKTFHEVMMLAKNNNVDMVVQSGDLFHVNKPSKKSLYQVLKTLRLCCMGDKPCELELLSDPSQVFHYDEFTNVNYEDPNFNISIPVFGISGNHDDASGDSLLCPMDILHATGLINHFGKVIESDKIKVVPLLFQKGSTKLALYGLAAVRDERLFRTFKDGGVTFEVPTMREGEWFNLMCVHQNHTGHTNTAFLPEQFLPDFLDMVIWGHEHECIPNLVHNPIKNFDVLQPGSSVATSLCEAEAQPKYVFILDIKYGEAPKMTPIPLETIRTFKMKSISLQDVPHLRPHDKDATSKYLIEQVEEMIRDANEETKQKLADDGEGDMVAELPKPLIRLRVDYSAPSNTQSPIDYQVENPRRFSNRFVGRVANGNNVVQFYKKRSPVTRSKKSGINGTSISDRDVEKLFSESGGELEVQTLVNDLLNKMQLSLLPEVGLNEAVKKFVDKDEKTALKEFISHEISNEVGILSTNEEFLRTDDAEEMKALIKQVKRANSVRPTPPKENDETNFAFNGNGLDSFRSSNREVRTGSPDITQSHVDNESRITHISQAESSKPTSKPKRVRTATKKKIPAFSDSTVISDAENELGDNNDAQDDVDIDENDIIMVSTDEEDASYGLLNGRKTKTKTRPAASTKTASRRGKGRASRT
modifications: left off: Gal4 activation domain (from the vector pGAD-C1), end not stated, kept
notes: Mre11 lacking the C-terminal 15-residue α-helix
[1]; Experiment 1
  Normalized to WT Mer2 IP: 68.56

B4: Mre11-myc (WT) (protein, UniProt P32829 1-692, looked up)
Double-strand break repair …: MDYPDPDTIRILITTDNHVGYNENDPITGDDSWKTFHEVMMLAKNNNVDMVVQSGDLFHVNKPSKKSLYQVLKTLRLCCMGDKPCELELLSDPSQVFHYDEFTNVNYEDPNFNISIPVFGISGNHDDASGDSLLCPMDILHATGLINHFGKVIESDKIKVVPLLFQKGSTKLALYGLAAVRDERLFRTFKDGGVTFEVPTMREGEWFNLMCVHQNHTGHTNTAFLPEQFLPDFLDMVIWGHEHECIPNLVHNPIKNFDVLQPGSSVATSLCEAEAQPKYVFILDIKYGEAPKMTPIPLETIRTFKMKSISLQDVPHLRPHDKDATSKYLIEQVEEMIRDANEETKQKLADDGEGDMVAELPKPLIRLRVDYSAPSNTQSPIDYQVENPRRFSNRFVGRVANGNNVVQFYKKRSPVTRSKKSGINGTSISDRDVEKLFSESGGELEVQTLVNDLLNKMQLSLLPEVGLNEAVKKFVDKDEKTALKEFISHEISNEVGILSTNEEFLRTDDAEEMKALIKQVKRANSVRPTPPKENDETNFAFNGNGLDSFRSSNREVRTGSPDITQSHVDNESRITHISQAESSKPTSKPKRVRTATKKKIPAFSDSTVISDAENELGDNNDAQDDVDIDENDIIMVSTDEEDASYGLLNGRKTKTKTRPAASTKTASRRGKGRASRTPKTDILGSLLAKKRK
modifications: myc tag
[4]; spores placed: 144 (WT), 80 (ΔC15), 88 (SIM), 80 (ΔC15+ SIM)
  Visible spore colonies: 140
[4]; visible spore colonies of spores placed
  Spore Viability: 97.22
